Holding throughout (assay): pull-down
The target of assay [1] is CDK12/Cyclin K complex, full-length (WT) CDK12 (human, UniProt Q9NYV4;O75909).
Assay [2] deals with PAF1C-YY/AA (PAF1C containing CDC73-YY/AA) (human, UniProt Q6PD62;Q6P1J9;Q8WVC0;Q8N7H5;Q9GZS3, Y290A | Y293A).
Assay [3] addresses PAF1 complex (five-subunit PAF1C, WT) (human, UniProt Q6PD62;Q6P1J9;Q8WVC0;Q8N7H5;Q9GZS3).

Sequence of CDK12/Cyclin K complex, full-length (WT) CDK12 (Q9NYV4 whole entry, one chain of several): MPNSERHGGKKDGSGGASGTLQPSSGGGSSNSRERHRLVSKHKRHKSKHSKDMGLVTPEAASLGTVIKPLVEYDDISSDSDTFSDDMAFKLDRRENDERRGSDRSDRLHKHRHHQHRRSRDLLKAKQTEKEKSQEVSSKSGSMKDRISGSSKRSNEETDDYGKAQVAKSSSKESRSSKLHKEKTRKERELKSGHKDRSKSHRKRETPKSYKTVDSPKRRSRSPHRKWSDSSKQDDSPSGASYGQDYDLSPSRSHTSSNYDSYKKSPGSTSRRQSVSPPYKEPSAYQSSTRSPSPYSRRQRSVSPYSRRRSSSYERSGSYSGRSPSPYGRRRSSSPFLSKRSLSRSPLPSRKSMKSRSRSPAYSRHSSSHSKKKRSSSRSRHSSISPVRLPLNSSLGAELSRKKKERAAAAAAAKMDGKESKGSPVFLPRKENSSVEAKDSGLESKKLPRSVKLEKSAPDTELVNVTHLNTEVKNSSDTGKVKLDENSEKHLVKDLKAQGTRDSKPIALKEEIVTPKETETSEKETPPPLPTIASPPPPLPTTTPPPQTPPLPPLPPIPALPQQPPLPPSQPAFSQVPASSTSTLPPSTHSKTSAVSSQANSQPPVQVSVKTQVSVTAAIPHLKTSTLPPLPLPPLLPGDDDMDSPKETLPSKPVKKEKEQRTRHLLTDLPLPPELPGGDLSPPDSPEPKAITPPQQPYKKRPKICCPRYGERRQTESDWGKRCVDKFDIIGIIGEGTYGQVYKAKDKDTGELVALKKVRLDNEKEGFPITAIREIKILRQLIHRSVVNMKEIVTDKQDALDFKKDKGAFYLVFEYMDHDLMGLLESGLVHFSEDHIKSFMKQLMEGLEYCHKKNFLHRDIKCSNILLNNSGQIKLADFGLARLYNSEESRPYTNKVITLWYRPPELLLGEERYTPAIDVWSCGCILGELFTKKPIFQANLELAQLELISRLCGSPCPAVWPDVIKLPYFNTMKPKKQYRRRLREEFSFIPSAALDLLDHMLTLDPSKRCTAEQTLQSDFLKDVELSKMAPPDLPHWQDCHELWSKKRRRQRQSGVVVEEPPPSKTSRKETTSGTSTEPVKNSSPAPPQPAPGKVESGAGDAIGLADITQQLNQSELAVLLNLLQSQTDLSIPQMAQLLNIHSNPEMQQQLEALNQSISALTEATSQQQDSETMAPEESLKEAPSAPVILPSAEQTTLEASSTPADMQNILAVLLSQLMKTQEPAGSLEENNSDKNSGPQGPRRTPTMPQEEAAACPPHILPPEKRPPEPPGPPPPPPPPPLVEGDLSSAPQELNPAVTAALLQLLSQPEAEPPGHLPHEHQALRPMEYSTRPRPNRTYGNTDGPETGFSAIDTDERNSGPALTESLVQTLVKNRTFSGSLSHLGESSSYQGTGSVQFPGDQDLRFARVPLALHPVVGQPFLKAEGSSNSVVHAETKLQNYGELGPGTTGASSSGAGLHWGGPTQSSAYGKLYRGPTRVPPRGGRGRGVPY

B1: Flag-GST-RPB1-CTD(1586-1971) (domain or fragment)
chain: GGAMSPSYSPTSPAYEPRSPGGYTPQSPSYSPTSPSYSPTSPSYSPTSPNYSPTSPSYSPTSPSYSPTSPSYSPTSPSYSPTSPSYSPTSPSYSPTSPSYSPTSPSYSPTSPSYSPTSPSYSPTSPSYSPTSPSYSPTSPSYSPTSPSYSPTSPSYSPTSPNYSPTSPNYTPTSPSYSPTSPSYSPTSPNYTPTSPNYSPTSPSYSPTSPSYSPTSPSYSPSSPRYTPQSPTYTPSSPSYSPSSPSYSPTSPKYTPTSPSYSPSSPEYTPTSPKYSPTSPKYSPTSPKYSPTSPTYSPTTPKYSPTSPTYSPTSPVYTPTSPKYSPTSPTYSPTSPKYSPTSPTYSPTSPKGSTYSPTSPGYSPTSPTYSLTSPAISPDDSDEEN
As for B1, in assay [1], the binding result was “binds”.

B2: CDK12(KiD)/Cyclin K complex (complex)
chain 1: not shown
chain 2: MKENKENSSPSVTSANLDHTKPCWYWDKKDLAHTPSQLEGLDPATEARYRREGARFIFDVGTRLGLHYDTLATGIIYFHRFYMFHSFKQFPRYVTGACCLFLAGKVEETPKKCKDIIKTARSLLNDVQFGQFGDDPKEEVMVLERILLQTIKFDLQVEHPYQFLLKYAKQLKGDKNKIQKLVQMAWTFVNDSLCTTLSLQWEPEIIAVAVMYLAGRLCKFEIQEWTSKPMYRRWWEQFVQDVPVDVLEDICHQILDLYSQGKQQMPHHTPHQLQQPPSLQPTPQVPQVQQSQPSQSSEPSQPQQKDPQQPAQQQQPAQQPKKPSPQPSSPRQVKRAVVVSPKEENKAAEPPPPKIPKIETTHPPLPPAHPPPDRKPPLAAALGEAEPPGPVDATDLPKVQIPPPAHPAPVHQPPPLPHRPPPPPPSSYMTGMSTTSSYMSGEGYQSLQSMMKTEGPSYGALPPAYGPPAHLPYHPHVYPPNPPPPPVPPPPASFPPPAIPPPTPGYPPPPPTYNPNFPPPPPRLPPTHAVPPHPPPGLGLPPASYPPPAVPPGGQPPVPPPIPPPGMPPVGGLGRAAWMR
As to B2, the binding result in assay [2] and in assay [3] was “binds” in each case.

Values taken from paper doi:10.1101/2024.10.14.618141 (bioRxiv, 2024).
